# Data as given in US20230218753A1.
# How the values were obtained:
# [1] = molecular target: activated human complement C1s (UniProt P09871); assay: direct binding
# [2] = molecular target: activated human complement C1s (UniProt P09871); assay: competition binding with 50 pM biotinylated TNT005
# activated human complement C1s, sequence (P09871 16-688): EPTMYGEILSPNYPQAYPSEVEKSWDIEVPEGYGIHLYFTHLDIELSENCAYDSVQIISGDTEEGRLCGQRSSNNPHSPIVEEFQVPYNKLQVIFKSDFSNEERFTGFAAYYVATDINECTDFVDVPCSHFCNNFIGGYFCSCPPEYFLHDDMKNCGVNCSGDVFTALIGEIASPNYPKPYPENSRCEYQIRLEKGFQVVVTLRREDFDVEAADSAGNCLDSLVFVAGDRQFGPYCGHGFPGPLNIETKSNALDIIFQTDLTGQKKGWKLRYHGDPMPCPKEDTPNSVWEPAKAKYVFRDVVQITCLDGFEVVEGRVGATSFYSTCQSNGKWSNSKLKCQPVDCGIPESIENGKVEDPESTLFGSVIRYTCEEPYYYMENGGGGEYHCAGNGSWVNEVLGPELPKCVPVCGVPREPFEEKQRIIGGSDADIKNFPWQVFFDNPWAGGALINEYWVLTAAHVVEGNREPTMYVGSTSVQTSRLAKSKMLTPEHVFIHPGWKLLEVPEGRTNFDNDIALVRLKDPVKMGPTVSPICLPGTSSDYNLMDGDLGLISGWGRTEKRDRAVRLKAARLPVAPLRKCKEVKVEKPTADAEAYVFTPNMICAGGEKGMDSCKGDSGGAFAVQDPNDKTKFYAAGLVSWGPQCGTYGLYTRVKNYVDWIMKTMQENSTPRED
substance,measurement,setting,value
TNT005,EC50,[1],55.9 pM
same,IC50,[2],39.5 pM
